Test [1] concerns the target recombinant gB-CMV polyepitope protein (Human cytomegalovirus (AD169)). The test is described as follows: direct ELISA; plate coated with concentrated recombinant protein diluted 1:1600; 2F12 at 1:8000; HRP anti-mouse Ig, TMB.
The target is the same in test [2]. The test is described as follows: direct ELISA; plate coated with concentrated recombinant protein diluted 1:6400; 2F12 at 1:8000; HRP anti-mouse Ig, TMB.
The target is the same in test [3]. The test is described as follows: direct ELISA; plate coated with concentrated recombinant protein diluted 1:3200; 2F12 at 1:8000; HRP anti-mouse Ig, TMB.
Test [4] shares this target. The test is described as follows: direct ELISA; plate coated with concentrated recombinant protein diluted 1:400; 2F12 at 1:8000; HRP anti-mouse Ig, TMB.
For test [5] the target is unchanged. Description: direct ELISA; plate coated with concentrated recombinant protein diluted 1:51200; 2F12 at 1:8000; HRP anti-mouse Ig, TMB.
Test [6] shares this target. Description: direct ELISA; plate coated with concentrated recombinant protein diluted 1:25600; 2F12 at 1:8000; HRP anti-mouse Ig, TMB.
Test [7] has the same target. Description: direct ELISA; plate coated with concentrated recombinant protein diluted 1:102400; 2F12 at 1:8000; HRP anti-mouse Ig, TMB.
Test [8] shares this target. Description: direct ELISA; plate coated with concentrated recombinant protein diluted 1:50; 2F12 at 1:8000; HRP anti-mouse Ig, TMB.
Test [9] shares this target. Description: direct ELISA; plate coated with concentrated recombinant protein diluted 1:800; 2F12 at 1:8000; HRP anti-mouse Ig, TMB.
For test [10] the target is unchanged. The test is described as follows: direct ELISA; plate coated with concentrated recombinant protein diluted 1:100; 2F12 at 1:8000; HRP anti-mouse Ig, TMB.
For test [11] the target is unchanged. Description: direct ELISA; plate coated with concentrated recombinant protein diluted 1:200; 2F12 at 1:8000; HRP anti-mouse Ig, TMB.
Test [12] shares this target. Description: direct ELISA; plate coated with concentrated recombinant protein diluted 1:12800; 2F12 at 1:8000; HRP anti-mouse Ig, TMB.

Regarding “anti-gB monoclonal antibody 2F12 (Abcam, UK)”, the OD was determined as 0.379 OD in [1]; 0.317 OD in test [2]; 0.4 OD in [3]; 0.59 OD in [4]; 0.19 OD in [5]; 0.277 OD in test [6]. In addition, the OD in test [7] was 0.144 OD; in test [8], 0.69 OD; in [9], 0.486 OD; in [10] it was 0.548 OD; in [11], 0.408 OD; in test [12] it was 0.249 OD.

The values above are taken from patent US7976845.
